From US8785391B2, “Compound and method for treatment of alzheimer's disease and familial dementia” (Alphabeta AB, priority 2010, dated 2014)

Molecular target: T1, ABri23 (Homo sapiens, UniProt Q9Y287)
T1 construct: purchased Bachem (Bubendorf, Switzerland)
Test: ESI-MS binding of Bri2(90-236) to ABri23
Experimental: Prior to electrospray ionization mass spectrometry (ESI-MS), purified Bri2(90-236) (SEQ ID NO: 2) was rebuffered into 10 mM ammonium acetate, pH 7.0, using spin columns with a 3 kDa cut-off limit (Nanosep, Pall Corp., East Hills, N.Y., USA). Protein and peptides were mixed at 22° C. directly before analysis at a final protein concentration of 20 μM and a final peptide concentration of 50 μM. Data was acquired using a QTOF Ultima API mass spectrometer (Waters, Milford, Mass., USA) equipped with a Z-spray source operated in the positive-ion mode. Samples were introduced via nano-electrospray using metal-plated borosilicate glass capillary needles (Proxeon, Denmark). The source temperature was 80° C., the capillary voltage 1.7 kV, and the cone and RF lens 1 potentials were 100 and 38 V, respectively. The mass spectrometer was operated in single-reflector mode at a resolution of 10 000 (full width half maximum definition), and the mass scale was calibrated using myoglobin. Scans were acquired at a rate of 1 scan per 2 sec between 500 and 4000 m/z. The collision gas was argon at 5.2×10^−5 mbar. Mass spectra were smoothed using the Waters MassLynx software.
All peptides, with the exception of KFFEYNGKKFFE (SEQ ID NO: 15), ABri23 (SEQ ID NO: 4) and Aβ1-40 (SEQ ID NO: 11), were purchased from Thermo Electron (Darmstadt, Germany). KFFEYNGKKFFE was purchased from Interactiva (Ulm, Germany) and Aβ1-40 and disulfide-linked ABri23 were from Bachem (Bubendorf, Switzerland).
Peptides, except for KFFEYNGKKFFE, ABri23 and Aβ1-40, were acetylated at the N-terminus and amidated at the C-terminus. […]
ESI-MS binding experiments were conducted to investigate whether Bri2(90-236) can bind the peptides ABri23 and Aβ1-40. For this purpose, Bri2(90-236) was mixed with ABri23, Aβ1-40, or an equimolar mixture of ABri23 and Aβ1-40, to a final concentration of 20 μM Bri2(90-236) and 50 μM of each peptide, and analyzed by ESI-MS. Mass spectra were recorded to investigate the presence and stoichiometry of protein-peptide complexes in the gas phase.

B1: Bri2(90-236): recombinant protein of residues 90-236 of human Bri2 (SEQ ID NO: 2), encompassing the Brichos domain, expressed in E. coli (protein, listed as Homo sapiens)
chain: GIKYIKDDVILNEPSADAPAALYQTIEENIKIFEEEEVEFISVPVPEFADSDPANIVHDFNKKLTAYLDLNLDKCYVIPLNTSIVMPPRNLLELLINIKAGTYLPQSYLIHEHMVITDRIENIDHLGFFIYRLCHDKETYKLQRRET
For B1, the “Bri2(90-236)/ABri23 complex in competition experiment” value (20 μM Bri2(90-236) with 50 μM Aβ1-40 and 50 μM ABri23 (equimolar), ESI-MS) was “nearly all detectable recombinant Bri2(90-236) is complexed with ABri23”, the “saturation of Bri2(90-236) with ABri23 (complex formation)” value (20 μM Bri2(90-236), 50 μM oxidized ABri23 (2.5-fold molar excess), ESI-MS conditions) was “near-complete saturation” and the “binding preference ABri23 versus Aβ1-40” value (competition, both peptides at equimolar amounts, ESI-MS) was “preferentially binds ABri23”.
